Source: patent publication US20210380678A1 (SURROZEN OPERATING, published 2021)
Residue numbers refer to the chain shown, from its start. Names and notes keep the numbering of the source.

Tests used:
[1] = biological target: T1, human RNF43 extracellular domain (hRNF43 ECD) (human, UniProt Q68DV7 44-197, biotinylated (His-Avi tag)); experiment: ELISA (binding specificity)
T1 construct: Expressed with a His-Avi tag at the N-terminus and biotinylated; also called human RNF3 (Q44-D198)
T1 sequence: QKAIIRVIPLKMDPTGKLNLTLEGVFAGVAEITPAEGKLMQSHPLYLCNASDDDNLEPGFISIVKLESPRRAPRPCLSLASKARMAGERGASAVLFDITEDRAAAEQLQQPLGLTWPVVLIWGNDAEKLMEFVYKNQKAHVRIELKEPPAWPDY

[2] = biological target: T2, human ZNRF3 extracellular domain (hZNRF3 ECD) (human, UniProt Q9ULT6 56-219, biotinylated (His-Avi tag)); experiment: ELISA (binding specificity)
T2 construct: Expressed with a His-Avi tag at the N-terminus and biotinylated; also called ZRNF3
T2 sequence: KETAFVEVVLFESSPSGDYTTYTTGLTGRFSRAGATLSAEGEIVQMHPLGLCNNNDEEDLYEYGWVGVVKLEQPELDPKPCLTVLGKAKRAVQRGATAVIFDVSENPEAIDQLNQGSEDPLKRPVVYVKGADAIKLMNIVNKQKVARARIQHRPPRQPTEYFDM

[3] = biological target: human transferrin receptor 1 (TFR1), on cells (human, UniProt P02786 1-760); experiment: cell-based or functional assay
[4] = biological target: T3, Fc portion of human IgG1-fused LGR5-ECD (R&D systems) (human, UniProt O75473 22-557, limits assumed); experiment: BLI (Octet), LGR5-ECD-Fc on AHC sensor
T3 construct: extracellular domain; Bought reagent; also called LGRS; recombinant LGR5 protein; not shown: Fc portion of human IgG1
T3 sequence (looked up): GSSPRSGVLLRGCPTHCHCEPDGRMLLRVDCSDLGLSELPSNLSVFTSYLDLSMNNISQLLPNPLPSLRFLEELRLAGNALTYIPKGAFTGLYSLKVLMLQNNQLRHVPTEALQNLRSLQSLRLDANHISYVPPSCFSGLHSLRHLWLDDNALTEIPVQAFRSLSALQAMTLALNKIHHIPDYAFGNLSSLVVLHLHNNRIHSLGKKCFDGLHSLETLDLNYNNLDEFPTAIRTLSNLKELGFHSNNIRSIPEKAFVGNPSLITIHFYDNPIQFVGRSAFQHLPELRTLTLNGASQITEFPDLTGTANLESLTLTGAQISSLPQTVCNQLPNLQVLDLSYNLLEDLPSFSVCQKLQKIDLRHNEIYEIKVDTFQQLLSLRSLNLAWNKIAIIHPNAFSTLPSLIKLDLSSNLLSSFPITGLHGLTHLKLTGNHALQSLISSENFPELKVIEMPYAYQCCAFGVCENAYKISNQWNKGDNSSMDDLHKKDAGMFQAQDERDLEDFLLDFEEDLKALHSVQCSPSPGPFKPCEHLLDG
Experimental: (§1) Affinity measurement: Binding kinetics of the RSPO-derived proteins to LGRS, RNF43, or ZNRF3, and binding of the anti-ASGR Fabs to human and/or mouse ASGR1 were determined by bio-layer interferometry (BLI) using Octet Red 96 (PALL ForteBio, Fremont, CA) instruments at 30° C., 1000 rpm with either streptavidin (SA) or anti-hIgG Fc capture (AHC) biosensors. […] Following capture of ECDs of RNF43, ZNRF3 or LGRS, the biosensors were dipped into wells containing the relevant test molecules at 7 different concentrations in running buffer plus a well with only running buffer as a reference channel. KD was determined by steady-state analysis based on the average responses between 140 to 145 seconds of association phase, for binding to LGRS, RNF43, and ZNRF3. For the binding to ASGR, KD was determined by curve model fitting using the Octet® Red data analysis software (Fortebio)

[5] = biological target: T2, human ZNRF3 extracellular domain …; experiment: BLI (Octet), biotinylated ZNRF3 ECD on SA sensor
Experimental: as §1

[6] = biological target: T1, human RNF43 extracellular domain …; experiment: BLI (Octet), biotinylated RNF43 ECD on SA sensor
Experimental: as §1

[7] = biological target: T2, human ZNRF3 extracellular domain …; experiment: BLI (Octet) KD grade: * = KD >= 1 uM
Experimental: (§2) Binding characterization of recombinant Fabs or IgG' s was carried out using Bio-Layer Interferometry (BLI) using the Octet Red 96 platform (PALL ForteBio, Fremont, Calif.) with streptavidin (SA) coated biosensors (PALL ForteBio,). […] Following immobilization, sensors were dipped into samples containing test molecules at seven concentrations. Values for KD were determined by fitting the resulting data with a 1:1 binding model.

[8] = biological target: T2, human ZNRF3 extracellular domain …; experiment: BLI (Octet), biotinylated antigen on SA sensor, 1:1 fit
Experimental: as §2

[9] = biological target: T4, human ASGR1 extracellular domain (hASGR1 ECD) (human, UniProt P07306 62-291, biotinylated (His-Avi tag)); experiment: BLI, Fab on hASGR1; KD only in the figure
T4 construct: His-Avi tag at the N-terminus, biotinylated for BLI; also called human ASGR1 ECD
T4 sequence: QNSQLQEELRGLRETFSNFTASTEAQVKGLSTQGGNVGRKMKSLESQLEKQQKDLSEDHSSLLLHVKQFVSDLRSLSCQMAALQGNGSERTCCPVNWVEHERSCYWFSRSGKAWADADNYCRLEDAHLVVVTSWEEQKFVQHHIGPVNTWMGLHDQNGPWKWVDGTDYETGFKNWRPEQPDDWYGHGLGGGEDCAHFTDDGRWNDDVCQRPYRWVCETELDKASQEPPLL

Sequence of human transferrin receptor 1 (TFR1), on cells (P02786 whole entry, the tested form may be a part): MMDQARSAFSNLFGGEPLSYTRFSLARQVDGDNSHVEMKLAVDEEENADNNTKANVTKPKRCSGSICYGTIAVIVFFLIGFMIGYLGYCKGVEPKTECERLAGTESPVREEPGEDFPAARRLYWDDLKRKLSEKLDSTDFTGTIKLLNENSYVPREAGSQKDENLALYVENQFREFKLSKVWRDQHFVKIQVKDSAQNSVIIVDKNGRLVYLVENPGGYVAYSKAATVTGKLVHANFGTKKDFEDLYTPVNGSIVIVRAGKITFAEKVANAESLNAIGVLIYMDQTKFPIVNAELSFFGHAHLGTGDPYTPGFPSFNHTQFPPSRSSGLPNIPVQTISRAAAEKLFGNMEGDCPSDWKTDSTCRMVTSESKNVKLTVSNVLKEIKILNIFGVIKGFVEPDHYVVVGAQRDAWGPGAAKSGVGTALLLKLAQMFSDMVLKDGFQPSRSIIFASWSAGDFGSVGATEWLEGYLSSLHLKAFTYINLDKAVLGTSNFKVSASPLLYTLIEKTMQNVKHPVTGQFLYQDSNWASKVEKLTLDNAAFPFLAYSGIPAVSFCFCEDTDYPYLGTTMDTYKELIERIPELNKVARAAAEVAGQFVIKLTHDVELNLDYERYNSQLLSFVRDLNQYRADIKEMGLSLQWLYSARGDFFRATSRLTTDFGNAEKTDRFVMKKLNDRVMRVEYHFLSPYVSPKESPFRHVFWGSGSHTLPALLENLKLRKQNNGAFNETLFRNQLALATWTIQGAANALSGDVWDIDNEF

B1: 020S-D07 (antibody, V domains shown)
VH: QVQLVQSGAEVKKPGSSVKVSCKASGGTFSNTDINWVRQAPGQGLEWMGGIIPIFGTANYAQKFQGRVTITADESTSTAYMELSSLRSEDTAVYYCVGGRSGWIWYFDLWGRGTLVTVSS
VL: DIQMTQSPSSLSASVGDRVTITCRASQSISRWLAWYQQKPGKAPKLLIYDASSLETGVPSRFSGSGSGTDFTLTISSLQPEDFATYYCQQAYSFPWTFGQGTKVEIK
B1: binds [1]; binds [2].

B2: αTFR1-RSPO2-RA (anti-TFR1, RSPO2 (F105R/F109A)) (other)
chain: QVQLQQSGPELVRPGVSVKISCKGSGYTFTDYAMHWVKQSHAKSLEWIGGISTYFGRTNYNQKFKGRATMTVDKSSSTAYMELARLTSEDSALYYCARGLSGNYVMDYWGQGTSVTVSSGGGGSGGGGSGGGGSDIVLFQSPASLAVSLGQRATISCRASESVDDYGNSFMHWYQQKPGQPPKLLIYRASNLESGIPARFSGSGSRTDFTLTINPVEADDVATYYCQQSNEAPPTFGGGTKLEIRGSGGSNPICKGCLSCSKDNGCSRCQQKLFFFLRREGMRQYGECLHSCPSGYYGHRAPDMNRCARCRIENCDSCRSKDACTKCKVGFYLHRGRCFDECPDGFAPLEETMECVEGGDYKDDDDKGSHHHHHHHH
notes: FLAG-His tag; also called αTFR-RSPO2-RA
B2 was tested, and the “potency in the HEK293 STF reporter assay with Wnt sources” value [3] was ~20 fold and the binding result [4] was “no binding”.

B3: αTFR1-RSPO2-WT (anti-TFR1, RSPO2 wild type) (other)
chain: B2 chain with R319F, A323F
B3 was tested, and the “EC50 in the HEK293 STF reporter assay with Wnt sources” value [3] was ~20 fold and the “potency in the HEK293 STF reporter assay with Wnt sources” value [3] was ~400 fold.

B4: αTFR1-RSPO2-5mut (anti-TFR1, RSPO2 (R65A/R69A/Q70A/F105A/F109A)) (other)
chain: B2 chain with R279A, R283A, Q284A
notes: FLAG-His tag; also called αTFR1-RSPO2-Smut; αTFR-RPOS-5mut
B4: no binding [5]; no binding [6]; no binding [4].

B5: 020S-F07 (antibody, V domains shown)
VH: EVQLLESGGGLVQPGGSLRLSCAASGFTFSNYAMGWVRQAPGKGLEWVSYISRSSSTIYYADSVKGRFTISRDNSKNTLYLQMNSLRAEDTAVYYCARRRDGYNWGYWGQGTLVTVSS
VL: DIQMTQSPSSLSASVGDRVTITCRASQDISNSLNWYQQKPGKAPKLLIYAASTLQSGVPSRFSGSGSGTDFTLTISSLQPEDFATYYCQQSYSPPHTFGGGTKVEIK
B5: binds [1]; binds [2].

B6: 028S-E10 (antibody, V domains shown)
VH: QVQLVQSGAEVKKPGASVKVSCKASGYTFTSYYMHWVRQAPGQGLEWMGWINPNTGGTKSAQKFQGRVTMTRDTSTSTVYMELSSLRSEDTAVYYCARVLRGSLGFDYWGQGTLVTVSS
VL: B5 VL with N31R, S32Y, N34A, L54V, Q55E, S93R, P94S, H96Y, G100Q, V104L
B6 was tested, and the KD [7] was ≥ 1 µM and the Kd [8] was 4.16 µM.

B7: αGFP-RSPO2-5mut (anti-GFP, RSPO2 (R65A/R69A/Q70A/F105A/F109A)) (other)
chain: QVQLVESGGGLVQPGGSLRLSCAASGFTFSRYGMHWVRQAPGKGLEWVSGISSIGSNTYYADSVKGRFTISRDNSKNTLYLQMNSLRAEDTAVYYCARWYKTYIDVWGQGTLVTVSSGGGGSGGGGSGGGGSDIELTQPPSVSVAPGQTARISCSGDNLGKKYVYWYQQKPGQAPVLVIYGDDERPSGIPERFSGSNSGNTATLTISGTQAEDEADYYCASYDSSHILIVFGGGTKLTVLGSGGSNPICKGCLSCSKDNGCSRCQQKLFFFLRAEGMAAYGECLHSCPSGYYGHRAPDMNRCARCRIENCDSCRSKDACTKCKVGFYLHRGRCFDECPDGFAPLEETMECVEGGDYKDDDDKGSHHHHHHHH
notes: scFv against GFP fused to the RSPO2 Fu1-Fu2 fragment with five mutations; FLAG-His tag; also called αGFP-RSPO2-Smut
B7: no binding [4].

B8: αGFP-RSPO2-RA (anti-GFP, RSPO2 (F105R/F109A)) (other)
chain: B7 chain with A274R, A278R, A279Q
notes: scFv against GFP fused to the RSPO2 Fu1-Fu2 fragment with F105R/F109A; FLAG-His tag
B8: binds [5]; binds [6]; no binding [4].

B9: 028S-A09 (antibody, V domains shown)
VH: QVQLVQSGAEVKKPGASVKVSCKASGYRFTSYYLHWVRQAPGQGLEWMGWMNPKSGGTNYAQKFQGRVTMTRDTSTSTVYMELSSLRSEDTAVYYCARGGRSYGYWYFDLWGRGTLVTVSS
VL: EIVMTQSPATLSVSPGERATLSCRASQSVDSSYLAWYQQKPGQAPRLLIYAASARAAGIPARFSGSGSGTEFTLTISSLQSEDFAVYYCQQYYRSPPTFGQGTRLEIK
For B9, the KD [7] was ≥ 1 µM and the Kd [8] was 12.5 µM.

B10: 024S-D03 Fab (Fab, V domains shown)
VH: QVQLQQSGPGLVKPSQTLSLTCAISGDSVSSNSAAWNWMRQSPSRGLEWLGRTYYRSKWYNDYAVSVKSRMTINPDTSRNQFSLQLNSVTLEDTAVYYCARWNHEEHYFDYWGQGTLVTVSS
VL: EIVLTQSPATLSFSPGERATLSCRASQSVGSYLAWYQQRPGQAPRPLIYDATNRATGIPTRFSGSGSGTDFTLTISSLEPEDFATYYCQHRRTFGRGTKLEIK
notes: Tested as Fab, identified by phage display
B10: binds [9].

B11: 024S-A04 Fab (Fab, V domains shown)
VH: QVQLQQSGPGLVKPSQTLSLTCAISGDSVSSNSVAWNWMRQSPSRGLEWLGRTYYRSKWYYDYAVSVKSRITINPDTSKNQFSLQLNSVTPEDTAVYYCASWTRGAFDIWGQGTMVTVSS
VL: B10 VL with E1D, V3Q
notes: as for B10
B11: binds [9].

B12: 024S-E03 Fab (Fab, V domains shown)
VH: B10 VH with D27A, M39I, M71I, R79K, L91P, E92G
VL: B10 VL with E1D, I2V, L4M
notes: as for B10
B12: binds [9].
